Patent US20120276102A1 (Pfizer, published 2012)

B1: scFv H3 (scFv)
scFv: QVQLQESGPGLVKTSETLSLTCAVSGYSISSGYYWGWIRQPPGKGLEWIGSISHTGNTYYNPPLKSRVTISVDTSKNQFSLKLSSVTAADTAVYYCARFMGFGRPEYWGKGTLVTVSSGGGGSGGGGSGGGGSALSSELTQDPPVSVALGQTVTLTCQGDSLRTYYASWYQQKSGQAPILLLYGKHKRPSGIPDRFSGSTSGDTASLTITGAQAEDEADYYCNSRDSSGNPHVLFGGGTQLTVL
B2: scFv H5 (scFv)
scFv: QVQLQESGPGLVKTSETLSLTCAVSGYSISSGYYWGWIRQPPGKGLEWIGSISHTGNTYYNPPLKSRVTISVDTSKNQFSLKLSSVTAADTAVYYCARFLGFGRPEYWGKGTLVTVSSGGGGSGGGGSGGGGSALSSELTQDPPVSVALGQTVTLTCQGDSLRTYYASWYQQKSGQAPILLLYGKHKRPSGIPDRFSGSTSGDTASLTITGAQAEDEADYYCNSRDSSGNPHVLFGGGTQLTVL
B3: scFv H6 (scFv)
scFv: QVQLQESGPGLVKTSETLSLTCAVSGYSISSGYYWGWIRQPPGKGLEWIGSISHTGNTYYNPPLKSRVTISVDTSKNQFSLKLSSVTAADTAVYYCARFFGFGRPEYWGKGTLVTVSSGGGGSGGGGSGGGGSALSSELTQDPPVSVALGQTVTLTCQGDSLRTYYASWYQQKSGQAPILLLYGKHKRPSGIPDRFSGSTSGDTASLTITGAQAEDEADYYCNSRDSSGNPHVLFGGGTQLTVL
B4: scFv L1 (scFv)
scFv: QVQLQESGPGLVKTSETLSLTCAVSGYSISSGYYWGWIRQPPGKGLEWIGSISHTGNTYYNPPLKSRVTISVDTSKNQFSLKLSSVTAADTAVYYCARGGGISRPEYWGKGTLVTVSSGGGGSGGGGSGGGGSALSSELTQDPPVSVALGQTVTLTCQGDSLRTYYASWYQQKSGQAPILLLYGKHKRPSGIPDRFSGSTSGDTASLTITGAQAEDEADYYCASRSVSGNPHVLFGGGTQLTVL
B5: scFv L2 (scFv)
scFv: QVQLQESGPGLVKTSETLSLTCAVSGYSISSGYYWGWIRQPPGKGLEWIGSISHTGNTYYNPPLKSRVTISVDTSKNQFSLKLSSVTAADTAVYYCARGGGISRPEYWGKGTLVTVSSGGGGSGGGGSGGGGSALSSELTQDPPVSVALGQTVTLTCQGDSLRTYYASWYQQKSGQAPILLLYGKHKRPSGIPDRFSGSTSGDTASLTITGAQAEDEADYYCVARSVVGNPHVLFGGGTQLTVL
B6: scFv L3 (scFv)
scFv: QVQLQESGPGLVKTSETLSLTCAVSGYSISSGYYWGWIRQPPGKGLEWIGSISHTGNTYYNPPLKSRVTISVDTSKNQFSLKLSSVTAADTAVYYCARGGGISRPEYWGKGTLVTVSSGGGGSGGGGSGGGGSALSSELTQDPPVSVALGQTVTLTCQGDSLRTYYASWYQQKSGQAPILLLYGKHKRPSGIPDRFSGSTSGDTASLTITGAQAEDEADYYCVSRAVVGNPHVLFGGGTQLTVL
B7: scFv L4 (scFv)
scFv: QVQLQESGPGLVKTSETLSLTCAVSGYSISSGYYWGWIRQPPGKGLEWIGSISHTGNTYYNPPLKSRVTISVDTSKNQFSLKLSSVTAADTAVYYCARGGGISRPEYWGKGTLVTVSSGGGGSGGGGSGGGGSALSSELTQDPPVSVALGQTVTLTCQGDSLRTYYASWYQQKSGQAPILLLYGKHKRPSGIPDRFSGSTSGDTASLTITGAQAEDEADYYCSTRSSKGNPHVLFGGGTQLTVL
B8: scFv L5 (scFv)
scFv: QVQLQESGPGLVKTSETLSLTCAVSGYSISSGYYWGWIRQPPGKGLEWIGSISHTGNTYYNPPLKSRVTISVDTSKNQFSLKLSSVTAADTAVYYCARGGGISRPEYWGKGTLVTVSSGGGGSGGGGSGGGGSALSSELTQDPPVSVALGQTVTLTCQGDSLRTYYASWYQQKSGQAPILLLYGKHKRPSGIPDRFSGSTSGDTASLTITGAQAEDEADYYCASRSSKGNPHVLFGGGTQLTVL
B9: scFv L6 (scFv)
scFv: QVQLQESGPGLVKTSETLSLTCAVSGYSISSGYYWGWIRQPPGKGLEWIGSISHTGNTYYNPPLKSRVTISVDTSKNQFSLKLSSVTAADTAVYYCARGGGISRPEYWGKGTLVTVSSGGGGSGGGGSGGGGSALSSELTQDPPVSVALGQTVTLTCQGDSLRTYYASWYQQKSGQAPILLLYGKHKRPSGIPDRFSGSTSGDTASLTITGAQAEDEADYYCMSRSIWGNPHVLFGGGTQLTVL
B10: scFv L10 (scFv)
scFv: QVQLQESGPGLVKTSETLSLTCAVSGYSISSGYYWGWIRQPPGKGLEWIGSISHTGNTYYNPPLKSRVTISVDTSKNQFSLKLSSVTAADTAVYYCARGGGISRPEYWGKGTLVTVSSGGGGSGGGGSGGGGSALSSELTQDPPVSVALGQTVTLTCQGDSLRTYYASWYQQKSGQAPILLLYGKHKRPSGIPDRFSGSTSGDTASLTITGAQAEDEADYYCISRSIYGNPHVLFGGGTQLTVL
B11: scFv L23 (scFv)
scFv: QVQLQESGPGLVKTSETLSLTCAVSGYSISSGYYWGWIRQPPGKGLEWIGSISHTGNTYYNPPLKSRVTISVDTSKNQFSLKLSSVTAADTAVYYCARGGGISRPEYWGKGTLVTVSSGGGGSGGGGSGGGGSALSSELTQDPPVSVALGQTVTLTCQGDSLRTYYASWYQQKSGQAPILLLYGKHKRPSGIPDRFSGSTSGDTASLTITGAQAEDEADYYCSARSVRGNPHVLFGGGTQLTVL
B12: scFv H4 (scFv)
scFv: QVQLQESGPGLVKTSETLSLTCAVSGYSISSGYYWGWIRQPPGKGLEWIGSISHTGNTYYNPPLKSRVTISVDTSKNQFSLKLSSVTAADTAVYYCARWLGFGRPEYWGKGTLVTVSSGGGGSGGGGSGGGGSALSSELTQDPPVSVALGQTVTLTCQGDSLRTYYASWYQQKSGQAPILLLYGKHKRPSGIPDRFSGSTSGDTASLTITGAQAEDEADYYCNSRDSSGNPHVLFGGGTQLTVL

Key:
[1] = molecular target: T1, murine IL-21R extracellular domain His-Flag fusion protein (murine, UniProt Q9JHX3 20-237); experiment: competition ELISA; competitor plate-bound 18A5 IgG
T1 construct: Biotinylated in the ELISAs; also called mIL-21R-H/F; murine IL-21R-H/F
Procedure: Blocked plates were washed 3× with PBS, and 50 μl/well of scFv/IL-21R mixtures were transferred to the appropriate plates and incubated for 1 hr at RT. Plates were washed 5× with PBS prior to the addition of a 1:6000 dilution of horseradish peroxidase-conjugated streptavidin (Southern Biotech, Birmingham, Ala.) secondary antibody to detect bound biotinylated mIL-21R-H/F. Plates were then incubated for 1 hr at RT and washed 7× with PBS. Signal was developed using 3,3′,5,5′-tetramethylbenzidine (TMB), the reaction stopped with H₂SO₄, and the absorbance read at 450 nm on an ENVISION™ plate reader (Perkin Elmer).

[2] = molecular target: human IL-21R expressed on cells (human, UniProt Q9HBE5 20-538); experiment: cell-based or functional assay
Sequence of human IL-21R expressed on cells (Q9HBE5 20-538 limits assumed): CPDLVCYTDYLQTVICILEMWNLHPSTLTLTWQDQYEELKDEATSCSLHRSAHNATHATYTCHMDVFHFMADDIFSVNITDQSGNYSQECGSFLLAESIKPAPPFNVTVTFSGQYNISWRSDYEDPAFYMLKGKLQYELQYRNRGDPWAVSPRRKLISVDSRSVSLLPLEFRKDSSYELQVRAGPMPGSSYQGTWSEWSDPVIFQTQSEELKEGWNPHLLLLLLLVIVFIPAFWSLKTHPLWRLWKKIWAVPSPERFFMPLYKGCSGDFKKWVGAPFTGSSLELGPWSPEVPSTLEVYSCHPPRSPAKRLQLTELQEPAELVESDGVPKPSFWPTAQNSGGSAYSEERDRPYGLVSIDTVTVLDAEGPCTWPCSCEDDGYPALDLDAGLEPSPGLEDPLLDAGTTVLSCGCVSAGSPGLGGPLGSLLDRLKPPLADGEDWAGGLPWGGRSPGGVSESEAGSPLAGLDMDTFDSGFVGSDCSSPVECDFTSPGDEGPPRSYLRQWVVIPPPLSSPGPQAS

[3] = molecular target: murine IL-21R expressed on cells (murine, UniProt Q9JHX3 20-529); experiment: cell-based or functional assay

Row | Binder | IC50 [1] | IC50, Human IL-21R-BaF3 Neutralization Assay [2] | IC50, Human IL-21R-TF1 Neutralization Assay [2] | IC50, Murine IL-21R-BaF3 Neutralization Assay [3]
1 | B1 | 14 nM | 7.7 nM | 98.1 nM | 25.7 nM
2 | B2 | 17 nM | 7.9 nM | 178 nM | 53.7 nM
3 | B3 | 13 nM | 13.8 nM | ~150 nM | –
4 | B4 | 7 nM | 3.7 nM | ~55 nM | 28.8 nM
5 | B5 | 5 nM | 3.1 nM | 37.5 nM | 2.41 nM
6 | B6 | 100 nM | 27.6 nM | ~7 nM | 13.8 nM
7 | B7 | 8 nM | 2.1 nM | ~60 nM | –
8 | B8 | 7 nM | 2.1 nM | ~20 nM | 38.5 nM
9 | B9 | 4 nM | 5.9 nM | ~150 nM | 0.29 nM
10 | B10 | 40 nM | 15.1 nM | 7 nM | –
11 | B11 | 12 nM | 1.5 nM | 15.3 nM | –
12 | B12 | – | 3.8 nM | 9.3 nM | –
